The source of these data is patent US20150273076A1, “SP1 POLYPEPTIDES, MODIFIED SP1 POLYPEPTIDES AND USES THEREOF” (Fulcrum SP Ltd., priority 2006, published 2015).

Series [1] deals with Human colon adenocarcinoma (HT-29) cells. The series is described as follows: In-vitro cytotoxicity in HT-29 cells. The class given is cell-based. An excerpt: FIGS. 24a and 24b are graphs illustrating the in-vitro cytotoxic effects of SP1-DOX complex. FIG. 24a—HT-29 cells cultured in 96 well microtiter plates were exposed to uncomplexed DOX (closed oval, magenta) or SP1-DOX complex (closed triangle, blue) prepared as described in FIGS. 9-15, at the indicated concentrations. FIG. 24b—HT-29 cells were exposed to uncomplexed SP1 (without DOX) (closed diamond, blue) or SP1-DOX complex (closed triangle, yellow) at indicated concentrations. Proportion of living cells was determined by MTT assay, and the IC50 was calculated.
HT-29 cells were prepared as in FIG. 24 above.
Human colon adenocarcinoma (HT-29) cells. The cells were grown in 50-ml flasks containing DMEM medium (Biological Industries, Bet Haemek), supplemented with 10% fetal calf serum, 1% glutamine and 1% Antibiotic-Antimicotic solution (Biolab, Israel). The cells were trypsinizated, and 2 ml medium containing 5×10^4 cells were plated in each well of a 6-wells plate. SP1, drugs or SP1-complexed with drugs was added at the indicated concentrations. The cells were incubated at 37° C. in a humidified atmosphere containing 5% CO2.After 48 hours the medium in the presence or absence of drugs was replaced in each well respectively, to maintain a constant supply of ingredients and drugs. After four days the medium was removed and the number of viable cells in the cultures was determined by spectroscopy.
The human colorectal adenocarcinoma cell line, HT-29, was used to evaluate the biological activity of the SP1-DOX complex, compared to that of the free drug and un-complexed SP1 protein. […] Thus, the SP1-DOX complex is at least as biologically active as free DOX.

Series [2] in a line: Oligomeric complex formation by SDS PAGE (unboiled samples). The conditions noted are these: for oligomeric complex formation, stability and resistance: boiling and protease stability; for Complex Formation: SDS PAGE, samples not boiled in the application buffer.
Protocol: SP1 (20 μg) was prepared in SDS sample buffer at different SP1-monomer: SDS molar ratios and boiled (or not) (5 mM) prior to SDS-PAGE analysis. Heat stability of SP1 oligomer (10 μg) was tested in the same buffer at SP1-monomer: SDS=1:1733 and heated for 1 to 10 mM at different temperatures.
Purified 6HSP1 and ΔNSP1 were first denatured to the monomeric forms by boiling the proteins in SDS sample buffer. The denatured proteins were then separated in preparative SDS-PAGE, and visualized by Coomassie blue staining. The monomeric forms of two recombinant protein bands were excised. Gel slices that carried monomeric form of 6HSP1 (SEQ ID NO:7) and ΔNSP1 (SEQ ID NO:2) were mixed at 1:1 ratio (v/v). In order to enhance the surface/volume ratio, the gel slices were pulverized using a pestle and mortar in the presence of liquid nitrogen. […] The hetero-oligomeric complex was isolated by subjecting the eluated protein to Ni-NTA Agarose beads and the bound proteins were eluted by 400 mM imidazole using a standard procedure (Sigma protocol for P 6611). […] The composition of hetero-oligomeric SP1 was determined by SDS-PAGE and visualized by silver staining.
The nature of series [3]: Doxorubicin complex formation and release (ultrafiltration, HPLC, SDS PAGE fluorescence). Format: binding. The conditions noted are these: reducing conditions (DTT or GSH). As to the method: Pure wild type SP1 or Cys2 SP1 mutant (1.5 mg/ml in 20 mM Sodium Phosphate buffered, pH=6.8) were incubated overnight at room temp, with DOX 1 mg/ml in the presence of DTT (10 mM), with gentle rolling. Binding reaction was stopped by adding hydrogen peroxide (0.01%), followed by ultra filtration (using 30 kD cutoff filter) and extensive wash until follow-through become colorless. Optical density was measured at both 278 and 477 nm using nanodrop spectrophotometer. Note the dramatic effect of the reducing agent on drug binding by the Cys2 SP1, compared to the absence of effect on the wild type SP1.
FIG. 13 is a histogram illustrating the redox-dependent release of Doxorubicin by Cys2 SP1. Doxorubicin (DOX) was complexed within Cys2 SP1 as described in FIGS. 9-12 above. Release of the drug in the presence of 0, 2 and 20 mM GSH was measured by ultrafiltration and size exclusion HPLC analysis (detection at 228 and 475 nm);
FIG. 14 is a histogram illustrating the effect of oxidation on DOX complex formation by Cys2 SP1. Doxorubicin (DOX) was reacted with Cys2 SP1 and wild type SP1 as described in FIGS. 9-13 above. Oxidized protein indicates exposure to excess of H2O2 prior to treatment with GSH. DOX complex formation was measured by ultrafiltration and size exclusion HPLC analysis (detection at 228 and 475 nm). […] 1=the retentate; 2=the flow through; and 3=a DOX standard 20 μg/ml.
FIG. 17 is a photograph of a fluorescent PAGE analysis illustrating effective complex formation with DOX by Cys2 and SP1 fusion proteins. Recombinant wild type (lanes 1 and 2), Cys2 (lanes 3 and 4), and SP1 fusion proteins having additional N-terminal tumor specific peptide RGD (CRGD, SEQ ID NO:151; fusion protein is SEQ ID NO: 5)(lanes 5 and 6), or RGD in reverse order (RGDC, SEQ ID NO: 152; fusion protein is SEQ ID NO: 6)(lanes 7 and 8) were reacted with DOX to form complex as described in FIGS. 9-14 above, and then separated on SDS-PAGE with (lanes 2, 4, 6 and 8) or without (lanes 1, 3, 5 and 7) denaturation by boiling in LSB.
Ultrafiltration was used for the detection of complex formation with the water soluble ligands FA and DOX which have a distinctive absorption properties and can be determined by spectroscopic measurements. […] Several additional washing cycles remove all remaining free FA and DOX, and the ligand-SP1 complex remains in the retained fraction.
Size exclusion chromatography is a common method for separation of molecules of different sizes under mild conditions and was employed to test FA and DOX complex formation under mild conditions. SP1 is eluted from the column after 7 min and is detected at 278 nm only, and free FA is eluted from the column (TSK G3000 SWXL, Tosohaas) after 16 min and is detected at 490 nm. The SP1-FA and SP1-DOX complexes also eluted at the same time but is detected also at 490 and 475 nm, respectively. DOX/SP1 ratio is determine from the standard curve obtained in solution.
Reverse phase HPLC (RP-HPLC) analysis separates between free DOX, PXT, and SP1. Both compounds bind to the resin (C-18) and are eluted at different acetonitrile concentrations, and detected at both 278 and 225 nm (SP1), 225 nm (PTX) and 477 nm (DOX).
Pyrogen free Cys2 SP1 variant (SEQ ID NO:3) in 20 mM (Na Phosphate buffer pH-6.7) final 2 mg/ml was diluted with DOX solution (Teva, Israel) 1:2 dilution final 1 mg/ml. Where indicated, GSH was added, and the solution is mixed overnight. Where indicated (oxidized), H2O2 is added to 0.1%, buffer added to 3× volume, and the solution is sonicated (3×22 sec. 1:1 pulse/pause at 3% amplitude 0.5 min. pause, using a Vibra-Cell 750 W sonicator).

Series [4] in a line: Heat stability (no precipitation after heat treatment). Conditions: 10 min at 100° C. or 30 min at 85° C.

Numbering of substitutions follows the chain as printed. Numbers in names are those of the source. ≈ marks a conversion by molar mass, not a printed value.

Take `CC(=O)O[C@H]1C(=O)[C@@]2(C)[C@H]([C@H](OC(=O)c3ccccc3)[C@]3(O)C[C@H](OC(=O)[C@H](O)[C@@H](NC(=O)c4ccccc4)c4ccccc4)C(C)=C1C3(C)C)[C@]1(OC(C)=O)CO[C@@H]1C[C@@H]2O` [PTX, paclitaxel]: in series [1] (Homo sapiens, HT-29 cells, dose inhibiting 50% of cell growth, read-out: IC50), the 50% inhibitory concentration (IC50) – broadly, the midpoint of a concentration-inhibition curve – is ~0.01 µg/mL (≈ 0.0117 µM). The “biological activity after storage in aqueous solution” value in series [1] (at least 3 weeks storage in aqueous solution) is “becomes inactive”.

B1: CRGD2: SP1 fusion protein with N-terminal tumor specific peptide CRGD, SEQ ID NO:5 (protein)
chain: MCRGDATRTPKLVKHTLLTRFKDEITREQIDNYINDYTNLLDLIPSMKSFNWGTDLGMESAELNRGYTHAFESTFESKSGLQEYLDSAALAAFAEGFLPTLSQRLVIDYFLY
modifications: Sp1 mutant variant Cys, Arg, Gly and Asp inserted into position 2
For B1, the “oligomeric complex formation, stability and resistance” value (from here on “oligomeric complex formation”) in series [2] is “formed a boiling stable and protease resistant dodecamer”; in series [2] (listed as CRGD SP1), “formed homo- and hetero-oligomeric complexes”. The DOX complex formation result in series [3] was “effective binding”. Further, in series [4], the Heat stability result is “+”.

B2: RGDC2: SP1 fusion protein with N-terminal peptide RGDC, SEQ ID NO:6 (protein)
chain: B1 chain with C2R, R3G, G4D, D5C
modifications: Sp1 mutant variant Arg, Gly, Asp and Cys inserted into position 2
Regarding B2, the “oligomeric complex formation” value in series [2] is “formed a boiling stable and protease resistant dodecamer”; in series [2] (listed as RGDC SP1), “formed homo- and hetero-oligomeric complexes”. Further, the DOX complex formation entry in series [3] is given as “effective binding”. For the same molecule, the Heat stability entry in series [4] is reported as “+”.

B3: Cys2 K18R Gly19: Insertion of Cys residue in position 2 and of glycine residue in position 19, K18R (Cys2loop1RGd), SEQ ID NO:11 (protein)
chain: MCATRTPKLVKHTLLTRFRGDEITREQIDNYINDYTNLLDLIPSMKSFNWGTDLGMESAELNRGYTHAFESTFESKSGLQEYLDSAALAAFAEGFLPTLSQRLVIDYFLY
modifications: Sp1 mutant variant Cys inserted into position 2, K18R mutated and a Gly inserted into position 19
Turning to B3, the “oligomeric complex formation” value in series [2] is “formed a boiling stable and protease resistant dodecamer”. Moreover, the Heat stability result in series [4] is recorded as “+”.

B4: Δ2-6 E72C: SP1 Loop 4 modification Δ2-6 E72C, SEQ ID NO:20 (protein)
chain: MKLVKHTLLTRFKDEITREQIDNYINDYTNLLDLIPSMKSFNWGTDLGMESAELNRGYTHAFESTFCSKSGLQEYLDSAALAAFAEGFLPTLSQRLVIDYFLY
modifications: Sp1 mutant variant amino acids 2-6 deleted and E72C mutated
For B4, the “Complex Formation” value in series [2] worked out at 10. The Heat stability entry in series [4] is “+”.

B5: 42-6 S73C: SP1 Loop 4 modification, printed 42-6 S73C, SEQ ID NO:21 (protein)
chain: B4 chain with C67E, S68C
modifications: Sp1 mutant variant amino acids 2-6 deleted and S73C mutated
In the case of B5, the “Complex Formation” value in series [2] is reported as 11. The Heat stability result in series [4] is listed as “+”.
